Data taken from publication PMC9431274, “Stenotrophomonas maltophilia from Nepal Producing Two Novel Antibiotic Inactivating Enzymes, a Class A β-Lactamase KBL-1 and an Aminoglycoside 6′-N-Acetyltransferase AAC(6′)-Iap” (Microbiology Spectrum, 2022).

Experiments:
[1] = tested on: CO[C@@]1(NC(=O)Cc2cccs2)C(=O)N2C(C(=O)O)=C(COC(N)=O)CS[C@@H]21; assay: initial rate of hydrolysis, UV spectrophotometry, Lineweaver-Burk; assay type: biochemical, Stenotrophomonas maltophilia; details: 37°C, 50 mM Tris-HCl pH 7.4, 0.3 M NaCl
From the text: (§1) initial rate of hydrolysis, UV spectrophotometry, Lineweaver-Burk on KBL-1

[2] = tested on: CO/N=C(\C(=O)N[C@@H]1C(=O)N2C(C(=O)O)=C(COC(C)=O)CS[C@H]12)c1csc(N)n1; assay: as above; assay type: biochemical, Stenotrophomonas maltophilia; details: 37°C, 50 mM Tris-HCl pH 7.4, 0.3 M NaCl
From the text: as §1

[3] = tested on: CO[C@@]1(NC(=O)C(C(=O)O)c2ccc(O)cc2)C(=O)N2C(C(=O)O)=C(CSc3nnnn3C)CO[C@@H]21; assay: as above; assay type: biochemical, Stenotrophomonas maltophilia; details: 37°C, 50 mM Tris-HCl pH 7.4, 0.3 M NaCl
From the text: as §1

[4] = tested on: CC1(C)S[C@@H]2[C@H](NC(=O)[C@H](N)c3ccccc3)C(=O)N2[C@H]1C(=O)O; assay: as above; assay type: biochemical, Stenotrophomonas maltophilia; details: 37°C, 50 mM Tris-HCl pH 7.4, 0.3 M NaCl
From the text: as §1

[5] = tested on: CC(C)(O/N=C(\C(=O)N[C@@H]1C(=O)N2C(C(=O)[O-])=C(C[n+]3ccccc3)CS[C@H]12)c1csc(N)n1)C(=O)O; assay: as above; assay type: biochemical, Stenotrophomonas maltophilia; details: 37°C, 50 mM Tris-HCl pH 7.4, 0.3 M NaCl
From the text: as §1

[6] = tested on: CC1=C(C(=O)O)N2C(=O)[C@@H](NC(=O)[C@H](N)C3=CCC=CC3)[C@H]2SC1; assay: as above; assay type: biochemical, Stenotrophomonas maltophilia; details: 37°C, 50 mM Tris-HCl pH 7.4, 0.3 M NaCl
From the text: as §1

[7] = tested on: CC1(C)S[C@@H]2[C@H](NC(=O)[C@H](N)c3ccc(O)cc3)C(=O)N2[C@H]1C(=O)O; assay: as above; assay type: biochemical, Stenotrophomonas maltophilia; details: 37°C, 50 mM Tris-HCl pH 7.4, 0.3 M NaCl
From the text: as §1

[8] = tested on: CC1(C)S[C@@H]2[C@H](NC(=O)Cc3ccccc3)C(=O)N2[C@H]1C(=O)O; assay: as above; assay type: biochemical, Stenotrophomonas maltophilia; details: 37°C, 50 mM Tris-HCl pH 7.4, 0.3 M NaCl
From the text: as §1

[9] = tested on: CO/N=C(\C(=O)N[C@@H]1C(=O)N2C(C(=O)[O-])=C(C[N+]3(C)CCCC3)CS[C@H]12)c1csc(N)n1; assay: as above; assay type: biochemical, Stenotrophomonas maltophilia; details: 37°C, 50 mM Tris-HCl pH 7.4, 0.3 M NaCl
From the text: as §1

[10] = tested on: C[C@@H](O)[C@H]1C(=O)N2C(C(=O)O)=C(SCCN=CN)C[C@H]12; assay: as above; assay type: biochemical, Stenotrophomonas maltophilia; details: 37°C, 50 mM Tris-HCl pH 7.4, 0.3 M NaCl
From the text: as §1

[11] = tested on: C[C@@H](O)[C@H]1C(=O)N2C(C(=O)O)=C(S[C@@H]3CN[C@H](C(=O)N(C)C)C3)[C@H](C)[C@H]12; assay: as above; assay type: biochemical, Stenotrophomonas maltophilia; details: 37°C, 50 mM Tris-HCl pH 7.4, 0.3 M NaCl
From the text: as §1

[12] = tested on: CCN1CCN(C(=O)N[C@@H](C(=O)N[C@@H]2C(=O)N3[C@@H]2SC(C)(C)[C@@H]3C(=O)O)c2ccccc2)C(=O)C1=O; assay: as above; assay type: biochemical, Stenotrophomonas maltophilia; details: 37°C, 50 mM Tris-HCl pH 7.4, 0.3 M NaCl
From the text: as §1

KBL-1 = molecular target: T1, KBL-1 (Stenotrophomonas maltophilia, UniProt A0A7I8E9L1); assay: penicillin G hydrolysis, UV spectrophotometry; assay type: biochemical
T1 construct: gene blaKBL-1; full length 286 residues; expressed without signal peptide in E. coli BL21-CodonPlus (pET28a); His-tag removed by TEV
T1 sequence (A0A7I8E9L1 entry or part of it): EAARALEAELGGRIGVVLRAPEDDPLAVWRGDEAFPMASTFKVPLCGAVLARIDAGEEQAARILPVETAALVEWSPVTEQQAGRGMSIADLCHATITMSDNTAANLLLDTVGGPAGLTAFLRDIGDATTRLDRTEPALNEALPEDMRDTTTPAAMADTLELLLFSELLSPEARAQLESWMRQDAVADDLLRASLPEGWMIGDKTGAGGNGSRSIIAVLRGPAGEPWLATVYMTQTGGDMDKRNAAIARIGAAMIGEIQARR

Compound: KBL-1 (Stenotrophomonas maltophilia)
- Km [1]: 57 ± 6 µM
- kcat [1]: 0.032 ± 0.002 s⁻¹
- kcat/Km [1]: 1000 M⁻¹ s⁻¹
- Km [2]: 31 ± 5 µM
- kcat [2]: 1.33 ± 0.053 s⁻¹
- kcat/Km [2]: 44000 M⁻¹ s⁻¹
- Km [3]: 49 ± 4 µM
- kcat [3]: 0.392 ± 0.009 s⁻¹
- kcat/Km [3]: 8000 M⁻¹ s⁻¹
- Km [4]: 37 ± 8 µM
- kcat [4]: 19 ± 1 s⁻¹
- kcat/Km [4]: 532000 M⁻¹ s⁻¹
- Km [5]: 45 ± 12 µM
- kcat [5]: 0.013 ± 0.003 s⁻¹
- kcat/Km [5]: 300 M⁻¹ s⁻¹
- Km [6]: 605 ± 45 µM
- kcat [6]: 2.23 ± 0.13 s⁻¹
- kcat/Km [6]: 4000 M⁻¹ s⁻¹
- Km [7]: 23 ± 4 µM
- kcat [7]: 10 ± 0.4 s⁻¹
- kcat/Km [7]: 455000 M⁻¹ s⁻¹
- Km [8]: 21 ± 5 µM
- kcat [8]: 24 ± 2 s⁻¹
- kcat/Km [8]: 1.17e+06 M⁻¹ s⁻¹
- Km [9]: 79 ± 2 µM
- kcat [9]: 0.751 ± 0.029 s⁻¹
- kcat/Km [9]: 10000 M⁻¹ s⁻¹
- Km [10]: 85 ± 7 µM
- kcat [10]: 1.13 ± 0.143 s⁻¹
- kcat/Km [10]: 13000 M⁻¹ s⁻¹
- Km [11]: 39 ± 6 µM
- kcat [11]: 0.443 ± 0.056 s⁻¹
- kcat/Km [11]: 11000 M⁻¹ s⁻¹
- Km [12]: 52 ± 7 µM
- kcat [12]: 22 ± 1 s⁻¹
- kcat/Km [12]: 422000 M⁻¹ s⁻¹

Compound: CC1(C)[C@H](C(=O)O)N2C(=O)C[C@H]2S1(=O)=O [sulbactam]
- IC50 (KBL-1): 1200 nM

Compound: O=C(O)[C@H]1/C(=C/CO)O[C@@H]2CC(=O)N21 [clavulanic acid]
- IC50 (KBL-1): 210 nM
